Molecular target: E. coli 70S ribosome (E. coli (endogenous in MRE600)) (UniProt P0AG67)
Test: co-purification with ribosomes isolated from cell extract; 70S ribosomes from E. coli MRE600, low salt wash (0.75 M NH4Cl; 0.6 M for 2D-PAGE); 12% SDS-PAGE and 2D-PAGE, MALDI-TOF/TOF mass spectrometry, western blot with anti-AdhE; occupancy from band intensities with L2 as 100%

Row | occupancy [%] | Substance
1 | 50 | aldehyde-alcohol dehydrogenase E (AdhE), co-purified with the E. coli 70S ribosome (from UniProt P0A9Q7 1-891) (natural protein)
2 | 60 | outer membrane protein C (OmpC), co-purified with the E. coli 70S ribosome (from UniProt P06996 22-367) (natural protein)
